Experimental data taken from US20250090639A1, “CONTROLLED-RELEASE CNP AGONISTS WITH LOW INITIAL NPR-B ACTIVITY” (priority 2016, published 2025).

How the values were obtained:
[1] = Pharmacokinetic profile of conjugate 11i after subcutaneous single-dose administration to cynomolgus monkeys; type: in vivo; details: single s.c. 40 μg CNP-38 eq/kg
Description: As internal standard deuterated CNP-38 conjugate was used.
After 3 hours incubation at 37° C. […] 10 μL were injected into the UHPLC-MS system.

recombinant human NEP = target: T1, recombinant human NEP (Homo sapiens, UniProt P08473); test: Digest of CNP variants by Neutral Endopeptidase in vitro; type: in vitro ADME; details: 100 μg CNP equivalents/mL, pH 7.4, 37° C., up to 4 days, normalized to mean CNP-34 or CNP-38 half life
T1 construct: purchased Enzo Life Sciences GmbH, Lörrach, Germany
Description: Samples were taken at different time intervals. […] The resulting reaction products were assigned using HPLC-MS.

[2] = Evaluation of cardiovascular effects in the conscious telemetered mouse (subcutaneous administration); type: in vivo, Male Crl: CD1(1CR) mice; details: 800 μg CNP-38 (eq)/kg sc
Description: Male Crl: CD1(1CR) mice (age range 8-13 weeks and body weight range 27.3-35.6 g at start of dosing) were surgically implanted with a TA11PA-C10 telemetry transmitter (Data Sciences International (DSI)) in the carotid artery. The body of the transmitter was placed subcutaneously in the lateral flank of the mouse. The mice were dosed subcutaneously in a latin square crossover design with at least 72 hours between dosing occasions. […] At least four mice were included at each dose level. Blood pressure (systolic (SAP), diastolic (DAP) and mean (MAP) and heart rate (HR, derived from blood pressure), were recorded using a digital data capture system linked with a DSITM Ponemah data acquisition and analysis system. The capture system allowed recording of the cardiovascular parameters whilst the mice were in individual cages. On the day of each test session the animals were weighed and a predose recording was performed for at least 60 min prior to dosing. Each mouse was returned to the home cage and the cardiovascular parameters were recorded for approximately 48 hours postdose. Blood pressure and HR were reported at the following time points: −30, −20, −10, 5, 15 and 30 min postdose and 1, 2, 6, 12, 18, 24, 30, 36, 42 and 48 hours postdose. Each time point was presented as the average value of five minute's recording prior to the time point. […]

T1 sequence (P08473 whole entry): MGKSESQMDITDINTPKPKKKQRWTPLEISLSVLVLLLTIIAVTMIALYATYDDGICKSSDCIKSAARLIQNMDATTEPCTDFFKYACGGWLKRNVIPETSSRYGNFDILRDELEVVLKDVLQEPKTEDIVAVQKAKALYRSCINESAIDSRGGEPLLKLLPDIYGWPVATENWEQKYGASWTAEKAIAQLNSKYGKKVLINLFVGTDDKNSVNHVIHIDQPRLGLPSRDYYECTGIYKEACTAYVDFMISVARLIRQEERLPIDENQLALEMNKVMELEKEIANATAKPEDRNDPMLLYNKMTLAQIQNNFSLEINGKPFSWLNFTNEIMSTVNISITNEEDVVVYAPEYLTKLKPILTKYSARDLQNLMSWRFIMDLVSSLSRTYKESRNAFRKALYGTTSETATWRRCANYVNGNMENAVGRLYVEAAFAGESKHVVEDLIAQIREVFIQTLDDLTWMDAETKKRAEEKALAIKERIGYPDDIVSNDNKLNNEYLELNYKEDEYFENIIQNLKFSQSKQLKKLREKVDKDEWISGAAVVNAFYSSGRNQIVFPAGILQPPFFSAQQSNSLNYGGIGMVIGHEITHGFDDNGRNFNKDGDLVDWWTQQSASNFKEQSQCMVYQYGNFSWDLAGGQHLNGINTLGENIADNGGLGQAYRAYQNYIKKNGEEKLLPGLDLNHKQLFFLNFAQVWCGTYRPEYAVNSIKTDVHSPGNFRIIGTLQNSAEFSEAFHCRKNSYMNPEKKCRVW

| Molecule | half life norm. (recombinant human NEP) | other results |
| --- | --- | --- |
| Reversible Lys26 CNP-38 PEG4×10 kDa Conjugate [Conjugate 11i] |  | tolerability [1]: well tolerated |
| Permanent Lys26 CNP-38 PEG 5 kDa Conjugate [Conjugate 19e] | 62.76 h |  |
| Permanent Lys16 CNP-34 PEG 5 kDa Conjugate [Conjugate 17e] | 54.23 h |  |
| Permanent N-Terminal CNP-38 PEG 5 kDa Conjugate [Conjugate 15e] | Almost no proteolysis |  |
| Permanent Lys22 CNP-34 PEG 5 kDa Conjugate [Conjugate 18e] | 38.87 h |  |
| Permanent N-Terminal CNP-34 PEG 5 kDa Conjugate [Conjugate 14e] | Almost no proteolysis |  |
| CC[C@H](C)[C@@H]1NC(=O)[C@H](CCCNC(=N)N)NC(=O)[C@H](CC(=O)O)NC(=O)[C@H](CC(C)C)NC(=O)[C@H](CCCCN)NC(=O)[C@H](CC(C)C)NC(=O)CNC(=O)[C@H](Cc2ccccc2)NC(=O)[C@@H](NC(=O)CNC(=O)[C@H](CCCCN)NC(=O)[C@H](CO)NC(=O)[C@H](CC(C)C)NC(=O)CNC(=O)[C@H](CCCCN)NC(=O)[C@H](CCCCN)NC(=O)[C@H](CC(N)=O)NC(=O)[C@H](C)NC(=O)CNC(=O)[C@H](CCCCN)NC(=O)[C@H](Cc2ccc(O)cc2)NC(=O)[C@H](CCCCN)NC(=O)[C@H](CCCNC(=N)N)NC(=O)[C@H](C)NC(=O)[C@H](CC(N)=O)NC(=O)[C@@H]2CCCN2C(=O)[C@H](Cc2c[nH]cn2)NC(=O)[C@H](CCC(=O)O)NC(=O)[C@H](CCC(N)=O)NC(=O)[C@@H](N)CC(C)C)CSSC[C@@H](C(=O)O)NC(=O)CNC(=O)[C@H](CC(C)C)NC(=O)CNC(=O)[C@H](CO)NC(=O)[C@H](CCSC)NC(=O)[C@H](CO)NC(=O)CNC1=O [CNP-38, reference compound] |  | effect on HR [2]: not impacted; effect on MAP / blood pressure ([2]; 5, 15 and 30 min post dose): significant decrease in MAP |
| Permanent Lys26 CNP-38 PEG4×10 kDa Conjugate [Conjugate 12g] | Almost no proteolysis |  |
